From PMC11372557

Assays:
[1] = target: RbdA-DGC-PDE (RbdA 376-797), linked cyclase-phosphodiesterase double domain of RbdA (Pseudomonas aeruginosa strain PAO1); test: SEC; apparent molecular weight on a calibrated size exclusion system; purified proteins in solution
[2] = target: RbdA-PDE (RbdA 549-797), phosphodiesterase domain of the regulator of biofilm dispersal RbdA (Pseudomonas aeruginosa strain PAO1); test: as above

Row | Substance | stoichiometry N [1] | stoichiometry N [2]
1 | RbdA-DGC-PDE (RbdA 376-797), linked cyclase-phosphodiesterase double domain of RbdA (domain or fragment) | 2 | 
2 | RbdA-PDE (RbdA 549-797), phosphodiesterase domain of the regulator of biofilm dispersal RbdA (domain or fragment) |  | 2
